According to article PMC3876986, “The Velvet Family of Fungal Regulators Contains a DNA-Binding Domain Structurally Similar to NF-κB”:

Legend:
Test in all cases: EMSA; EMSA: 10 mM HEPES/NaOH pH 7.4, 150 mM NaCl, ~53 pmol DNA in 10 ul, RT 15 min; DNA:protein molar ratios 1:0.3 to 1:9; 6% PAGE, 0.5% TBE, ethidium bromide
Settings in all cases: protein: recombinant; tags: Strep-tag (C-terminal); chain copies: 2; blunt
VosA1-190 K37A/K39A = molecular target: T1, VosA1-190 K37A/K39A (Aspergillus nidulans, UniProt Q5BBX1 1-190, K37A;K39A)
T1 sequence: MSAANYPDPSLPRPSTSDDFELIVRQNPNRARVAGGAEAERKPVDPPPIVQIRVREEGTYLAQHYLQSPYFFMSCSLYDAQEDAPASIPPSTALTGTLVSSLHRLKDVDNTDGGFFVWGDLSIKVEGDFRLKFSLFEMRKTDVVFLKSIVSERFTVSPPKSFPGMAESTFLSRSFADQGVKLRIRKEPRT

VosA1-190 K160A = molecular target: T2, VosA1-190 K160A (Aspergillus nidulans, UniProt Q5BBX1 1-190, K160A)
T2 sequence: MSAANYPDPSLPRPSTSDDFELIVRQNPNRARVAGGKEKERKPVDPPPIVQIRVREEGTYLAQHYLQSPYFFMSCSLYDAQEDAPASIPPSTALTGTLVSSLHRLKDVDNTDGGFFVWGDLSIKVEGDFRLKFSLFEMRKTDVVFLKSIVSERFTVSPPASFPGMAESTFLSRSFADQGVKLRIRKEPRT

VosA1-190 dead = molecular target: T3, VosA1-190 dead (Aspergillus nidulans, UniProt Q5BBX1 1-190, K37A;K39A;R41A;K42A)
T3 sequence: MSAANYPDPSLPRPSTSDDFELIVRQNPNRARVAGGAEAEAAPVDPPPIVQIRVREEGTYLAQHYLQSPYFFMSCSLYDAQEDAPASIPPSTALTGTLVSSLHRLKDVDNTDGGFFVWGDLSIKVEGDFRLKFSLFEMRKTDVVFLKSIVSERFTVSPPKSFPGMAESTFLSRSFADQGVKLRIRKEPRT

B1: brlA 35 bp probe (OHS301/302) (dsDNA)
DNA 1: ATTCGGCGACTAGGATCTTACTGGCCGCGGCCGAG
DNA 2: CTCGGCCGCGGCCAGTAAGATCCTAGTCGCCGAAT
- binding result (VosA1-190 K37A/K39A): no binding
- binding result (VosA1-190 K160A): binds
- binding result (VosA1-190 dead): no binding
